Consider four molecules from paper PMC12258035, “AcABI5a integrates abscisic acid signaling to developmentally modulate fruit ascorbic acid biosynthesis in kiwifruit”.

For data set [1], the target named is T1, AcABI5a-His (Actinidia chinensis? (cv. 'Donghong'), UniProt A0A2R6QW13 1-413).
T1 sequence: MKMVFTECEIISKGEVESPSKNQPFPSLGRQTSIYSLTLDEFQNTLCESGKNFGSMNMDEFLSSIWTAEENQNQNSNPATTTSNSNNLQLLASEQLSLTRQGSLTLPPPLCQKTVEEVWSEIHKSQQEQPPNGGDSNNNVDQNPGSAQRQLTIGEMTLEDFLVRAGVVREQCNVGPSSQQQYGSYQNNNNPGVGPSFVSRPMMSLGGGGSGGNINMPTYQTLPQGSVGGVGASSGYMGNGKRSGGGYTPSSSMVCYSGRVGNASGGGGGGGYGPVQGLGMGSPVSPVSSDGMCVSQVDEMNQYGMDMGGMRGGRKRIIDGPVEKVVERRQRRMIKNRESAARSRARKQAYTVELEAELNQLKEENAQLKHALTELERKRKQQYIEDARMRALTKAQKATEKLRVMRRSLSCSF
As to the kind of experiment: EMSA; unlabeled competitor weakens the band; EMSA in polyacrylamide gels with FAM probes; buffer, salt, pH and temperature not stated (refers to Hou et al. [71]). To be noted: protein: recombinant; tags: 6xHis at N- and C-terminus (pET-32a); fusion 65 kDa; chain copies: 2; label: FAM (on F strand); blunt.

The target in data set [2] is T1, AcABI5a-His. Description: EMSA; EMSA in polyacrylamide gels with FAM probes; buffer, salt, pH and temperature not stated (refers to Hou et al. [71]). The settings on record: protein: recombinant; tags: 6xHis at N- and C-terminus (pET-32a); fusion 65 kDa; chain copies: 2; label: FAM (on F strand); blunt. A general note: A gel shift assay detects complexes by their altered migration in electrophoresis.

B1: AcMYBS1 promoter G-box probe (dsDNA)
DNA 1: ATATTTTGTTATACGTGTTAGAAGTTCA
DNA 2: TGAACTTCTAACACGTATAACAAAATAT
Take B1: in data set [1], the binding result is recorded as “binds”.

B2: AcABI5a promoter G-box probe (dsDNA)
DNA 1: GCACCCTTGTAGACGTGAAATTGTAAGA
DNA 2: TCTTACAATTTCACGTCTACAAGGGTGC
With B2, the binding result in data set [1] was “binds”.

B3: AcMYBS1 mutant probe (dsDNA)
DNA 1: ATATTTTGTTAAAAAAATTAGAAGTTCA
DNA 2: TGAACTTCTAATTTTTTTAACAAAATAT
As for B3, the binding result in data set [2] was “no binding”.

B4: AcABI5a promoter mutant probe (dsDNA)
DNA 1: GCACCCTTGTAAAAAAAAAATTGTAAGA
DNA 2: TCTTACAATTTTTTTTTTACAAGGGTGC
On to B4, for which the binding result in data set [2] is reported as “no binding”.
